Results from publication PMC10127594.

Biological target: T1, Gac (Borrelia burgdorferi sensu stricto B31) (UniProt O51396)
T1 sequence: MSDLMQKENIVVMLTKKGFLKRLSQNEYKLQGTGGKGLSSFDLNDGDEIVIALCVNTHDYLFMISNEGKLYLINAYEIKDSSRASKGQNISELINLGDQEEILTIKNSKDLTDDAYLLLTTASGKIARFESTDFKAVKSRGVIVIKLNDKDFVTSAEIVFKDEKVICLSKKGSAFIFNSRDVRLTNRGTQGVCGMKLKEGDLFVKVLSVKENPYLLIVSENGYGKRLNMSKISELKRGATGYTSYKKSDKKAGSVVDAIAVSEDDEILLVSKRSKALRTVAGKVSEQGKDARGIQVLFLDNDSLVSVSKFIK
Assay: competition
Details: EMSA: 50 mM Tris-HCl (pH not stated), 25 mM KCl, 10% glycerol, 0.01% Tween 20, 100 nM DTT, 1 mM PMSF; 15 min, room temperature; 10 nM probe, 25 nM Gac

Substance | binding signal (fold reduction)
empty pCR2.1 amplicon | < 1.3
Ip89 ospC operator/promoter | 2
AACAGGCAAAAGGATTTGCCAAAGTCAGAAATT (double strand) [flaB competitor] | < 1.3
GTATTAAGTTATATTAATATAAAAGGAGAATATATT (double strand) [ospAB competitor] | < 1.3
B31 ospC operator/promoter | 2.6
